Test results taken from the nanobody polyreactivity screen of Harvey et al. (2022).

Test: yeast display, Sf9 membrane polyspecificity reagent, FACS + sequencing; frameworks hold sequencing errors
Procedure, shortened: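 Nanobodies came from a synthetic yeast display library in Saccharomyces cerevisiae BJ5465, induced with galactose for 36–48 hours and stained for 1 hour at 4 °C with 10% biotinylated, detergent-solubilized Sf9 membrane reagent. Cells were enriched on streptavidin microbeads and then FACS-sorted, with low and high (top ~1%) gates set on anti-HA fluorescence for expression and streptavidin fluorescence for reagent binding. Each polyreactivity label reflects the gate a clone came from. Genes were amplified by colony PCR, sequenced by MiSeq 2 × 250 and filtered by CDR length.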

Sequence: QVQLVESGGGLVQAGGSLRLSCAASGSIFQGNAKGGYRQAPGKERELVAGISDGGSTYYADSVKGRFTISRDNAKNTVYLQMNSLKPEDTAVYYCAAESEQWYSYVLSYDWEYDYWGQGTQVTVSS
- polyreactivity (PSR sort gate): low polyreactivity

Sequence: QVQLVESGGGLVQAGGSLRLSCAASGSIFQGYAMGWYRQAPGKERELVAAITASGGSTYYADSVKRRFTISRDNAKNTVYLQMNSLKPEDTAVYYCATDSYWRQDLYRYEYWGQGTQVTVSS
- polyreactivity (PSR sort gate): high polyreactivity

Sequence: QVQLVESGGGLVQAGGSLRLSCAASGSIFQGYAMGWYRQAPGKERELVARITSDDDSTYYADSVKGRFTISRDNAKITVYLQMNSLKPEDTAVYYCNADYYWTSLAMDSWGQGTKVTVSS
- polyreactivity (PSR sort gate): low polyreactivity

Sequence: QVQLVESGGGLVQAGGSLRLSCAASGSIFQPYAMGWYRQAPGKERELVAAINGRGGSTHYADSVKGRFTISRDNAKNTVYLQMNSLKPEDTAVYYCAATWAYPGSGYVYFYGNDYWGQGTQVTVSS
- polyreactivity (PSR sort gate): high polyreactivity

Sequence: QVQLVESGGGLVQAGGSLRLSCAASGSIFQPYAMGWYRQAPGKERELVAAISSSGGSTTYADSVKGRFTISRDNAKNTVYLQMNSLKPEDTAVYYCAAQYRYYPEAYGMGYWGQGTQVTVSS
- polyreactivity (PSR sort gate): low polyreactivity

Sequence: QVQLVESGGGLVQAGGSLRLSCAASGSIFQPYGMGWYRQAPGKERELVASIRGSAGSTHYADSVKGRFTISRDNAKYTVYLQMNSLKPEDTAVDYCAARAVASHFSPSLYGYWGHGTQVTVSS
- polyreactivity (PSR sort gate): high polyreactivity

Sequence: QVQLVESGGGLVQAGGSLRLSCAASGSIFQQYAMGWYRQAPGKERELVAAISWGDGSTYYADSVKGRFTISRDNAKNTVYLQKNSLKPEDTAVYYCNAYASAPLWSLEDDYWGQGTQVTVSS
- polyreactivity (PSR sort gate): low polyreactivity

Sequence: QVQLVESGGGLVQAGGSLRLSCAASGSIFQQYAMGWYRQAPGKERELVAAITYSGDGTYYADSVKGRFTISRDNAKNTVYLQMNSLKPEDTAVYYCAAYPRDPYKEYDYWGQGNQVTVSS
- polyreactivity (PSR sort gate): low polyreactivity

Sequence: QVQLVESGGGLVQAGGSLRLSCAASGSIFQRYAMGWYRQAPGKERELVAAISGSGGRTYYADSVKGRFTISRDNAKNTVYLQMNSLKPEDTAVYYCAKDFRLRGGYDYWGQGTQVTVSS
- polyreactivity (PSR sort gate): high polyreactivity

Sequence: QVQLVESGGGLVQAGGSLRLSCAASGSIFQRYTMGWYRQAPGKERELVARISGRGGSTYYADSVKGRFTISRDNAKNTVYLQMNSMKPEDTAVYYCAADTGRYLDSNYWGQGTQVTVSS
- polyreactivity (PSR sort gate): high polyreactivity

Sequence: QVQLVESGGGLVQAGGSLRLSCAASGSIFQSNAMGWYRQAPAKESELVAAISSSGGRTYYADSVKGRFTISRDNAKNTVYFQMNSLKPEDTAVYYCAALGYPDGGWGLGTQVTVSS
- polyreactivity (PSR sort gate): low polyreactivity

Sequence: QVQLVESGGGLVQAGGSLRLSCAASGSIFQSYAMGWYIQAPGKERELVAAISARGGTTNYADSVKGRFTISRDNAKNTVYLQMNSLKPEDTAVYYCAKVYRYGYSKYYYWGQGTQVTVSS
- polyreactivity (PSR sort gate): high polyreactivity

Sequence: QVQLVESGGGLVQAGGSLRLSCAASGSIFQVYAMGWYRQAPGKEREFVAAISYSGGGTYYADSVKGRFTISRDNAKNTVFLQMNSLKPEDTAVYYCAADVSGWEYDFWGLGTQVTVSS
- polyreactivity (PSR sort gate): low polyreactivity

Sequence: QVQLVESGGGLVQAGGSLRLSCAASGSIFQWYAMGWYRQAPGQERELFAAITWSGDTTYYADSVKGRFTISRDNAKNTVYLQMNRLKPEDTAVYYCAADTQDRTYYGWRQVGGYDYWGQGTQVTVSS
- polyreactivity (PSR sort gate): low polyreactivity

Sequence: QVQLVESGGGLVQAGGSLRLSCAASGSIFQYTMGWYRQAPGKERELVAAITRSGSSTYYADSVKGRFTISRDNAKNTVYLQMNSLKPEDTAVYSCAHTIRRVLGYGSWGQGTQVTVSS
- polyreactivity (PSR sort gate): high polyreactivity

Sequence: QVQLVESGGGLVQAGGSLRLSCAASGSIFQYYGMGWYRQAPGKERELVAAISRGGSTNYADSVKGRFTISRDNAKNTVYLQMNSLKPEDTAVYYCNARTYRKAYSGYNYWGQGTQVTVSS
- polyreactivity (PSR sort gate): high polyreactivity

Sequence: QVQLVESGGGLVQAGGSLRLSCAASGSIFQYYVMGWYRQAPGKERELVAAISQSGGRTYYADSVKGRFTISRDNAKNTFYLQMNSLKPEDTAVYYCAAYSRNAEYDYWGQGTQVTVSS
- polyreactivity (PSR sort gate): high polyreactivity

Sequence: QVQLVESGGGLVQAGGSLRLSCAASGSIFQYYVMGWYRQAQGKERELVAAISRGGGSTYYADSLKGRFTISRDNAKNTVYLQMNSMKPEDTAVYYCAKRTTRLAPYDYWGQGTQVTVSS
- polyreactivity (PSR sort gate): high polyreactivity

Sequence: QVQLVESGGGLVQAGGSLRLSCAASGSIFRENAMGWYRQAPGKERELVAAITDGGDRTYYADSVKGRFTISRDNAKNTVYLQMNSLKPEDTAVYYCAARWLYWPRYNSLVYTHRDSWGQGTQVTVSS
- polyreactivity (PSR sort gate): low polyreactivity

Sequence: QVQLVESGGGLVQAGGSLRLSCAASGSIFRFNAMGWYRQAPGKERELVAAITSRTYYADSVKGRFTISRDNAKNTVYLQMNSLKPEDTAVYYCAARVQSKYGYWGQGTQVTVSS
- polyreactivity (PSR sort gate): high polyreactivity

Sequence: QVQLVESGGGLVQAGGSLRLSCAASGSIFRFYPLGWYRQSPGKERELVAGITWSGASTYYADSVKGRFTISRDNAKNTVYLQMNSLKPEDTAVYYCAKLYRLDGFYYWGQGTQVTVSS
- polyreactivity (PSR sort gate): high polyreactivity

Sequence: QVQLVESGGGLVQAGGSLRLSCAASGSIFRGNAMGWYRQAPGKERELVAAISWSGASTYYADSVKGRFTISRDNAKNTVYLQMNSLKPEDTAVYYCAAVQWTGYPFDYWGQGTQVTVSS
- polyreactivity (PSR sort gate): high polyreactivity

Sequence: QVQLVESGGGLVQAGGSLRLSCAASGSIFRGNAMGWYRQAPGKERELVAAITSRGTSTYYADSVKGRFTISRDNAKNTVYLQMNSLKREDTAVYYCAARGYYLYWGQGTQVTVSS
- polyreactivity (PSR sort gate): high polyreactivity

Sequence: QVQLVESGGGLVQAGGSLRLSCAASGSIFRGNAMGWYRQAPGKERELVAGINRAGSTKYADSVKGRFTISRDNAKNTVYLQMNSLKPEDTAVYYCAAVRYERGLWSDYWGQGTQVSVSS
- polyreactivity (PSR sort gate): high polyreactivity

Sequence: QVQLVESGGGLVQAGGSLRLSCAASGSIFRGNAMGWYRQAPGKERELVATITNGGSTNYADSVKGRFTISRDNAKNTVYLQMNSLKPEDTAVYYCNADHSYHIASTRHVDYWGQGTQVTVSS
- polyreactivity (PSR sort gate): low polyreactivity

Sequence: QVQLVESGGGLVQAGGSLRLSCAASGSIFRGYAMGWYRQAPGKERELVAAITSRGGSTYYADSVKGRFTISRDNAKNTVYLQMNSLKPEDTAVYYCNKRVYYPWGQGTQVTVSS
- polyreactivity (PSR sort gate): high polyreactivity

Sequence: QVQLVESGGGLVQAGGSLRLSCAASGSIFRGYAMGWYRQAPGKERELVAAITSSAGSTYYADSVKGRFTISRDNAKNTVYLQMNSLKPEDTAVYYCNKYPRASRRGFDYWGQGTQVTVSS
- polyreactivity (PSR sort gate): high polyreactivity

Sequence: QVQLVESGGGLVQAGGSLRLSCAASGSIFRINAMGWYRPARGKERELVAATTKYADSVKGRFTISRDNAKNTVYLQMHSLKPEDTAVYYCAAAPIGGSSHPYDYWGQGTQVTVTS
- polyreactivity (PSR sort gate): low polyreactivity

Sequence: QVQLVESGGGLVQAGGSLRLSCAASGSIFRIYAMGWYRHAPGKERELVAAITGRGGSTYYADSVKGRFTISRDNEKNTVYLQMNSLKPEDTAVYYCAAEERYAYRYDYWGQGTQVTVSS
- polyreactivity (PSR sort gate): high polyreactivity

Sequence: QVQLVESGGGLVQAGGSLRLSCAASGSIFRIYAMGWYRQAPGKERELVAAISWTGGSTYYADSVKGRFTISRDNAKNTFFLQMNSLKPEDTAVYYCAARPRYKFSAYEYWGQGTQVTVSS
- polyreactivity (PSR sort gate): high polyreactivity

Sequence: QVQLVESGGGLVQAGGSLRLSCAASGSIFRIYAMGWYRQSPGKERELVAAISFSTGSRTYYADSVKGRFTISRDNAKNTVYLQMNSLKPEDTAVYYCNAESYYDYNYWGQGTQVTVSS
- polyreactivity (PSR sort gate): low polyreactivity

Sequence: QVQLVESGGGLVQAGGSLRLSCAASGSIFRKNAMGWYRQAPGKERELVAAISSSGGRTYYADSVKGRFTISRDNAKNTVYLQMNSLKPEDTAVYYCAAVYSKGGSSRISPGDDYWGQGTQVTVSS
- polyreactivity (PSR sort gate): high polyreactivity

Sequence: QVQLVESGGGLVQAGGSLRLSCAASGSIFRKNVMGWSRPAPGKERELVAAITASGGRTYYADSVKGRFTISRDNAKNTVYLQMNSLKPEDTAVYYCAARRYYPYISSGPYYYWGQGTQVTVSS
- polyreactivity (PSR sort gate): high polyreactivity

Sequence: QVQLVESGGGLVQAGGSLRLSCAASGSIFRKYAMGWYRQAPGKDRELVAAISKRGGSTYYADSVKGRFTISRDNAKNTVYLQMNSLKPEDTAVYYSNALRRYVSVRPTKSDYWGQGTQVTVSS
- polyreactivity (PSR sort gate): high polyreactivity

Sequence: QVQLVESGGGLVQAGGSLRLSCAASGSIFRKYAMGWYRQAPGKERELVAVITTDGSTNYADSVKGLFTISRDNAKNTVYLQMNSLKPEDTAVYYCNAVRSSIGTDNDYWGQGTQVTVSS
- polyreactivity (PSR sort gate): low polyreactivity

Sequence: QVQLVESGGGLVQAGGSLRLSCAASGSIFRKYTMGWYRQAPGKERELVAAISRIGGSTYYADSVKGRFTISRDNAKNTVYLQMNSLKPEDTAVYYCAKRGPRSYFQPWYDYWGQGTQVTVSS
- polyreactivity (PSR sort gate): high polyreactivity

Sequence: QVQLVESGGGLVQAGGSLRLSCAASGSIFRLNVMGWYRQAPGKERELVAVITGSGTRTNYADSVKGRFTISRDNAKNTVYLQMNSLKPEDTAVYYCNRVTTPTVTYGYGKMDYWGHGTQVTVSS
- polyreactivity (PSR sort gate): high polyreactivity

Sequence: QVQLVESGGGLVQAGGSLRLSCAASGSIFRLYAMGWYRQAPGKERELVAAITRGDSTNYADSVKGRFTISRDNAKNTVYLQMNSLKPEDTAVYYCAVTGRLYAHPQGYDYWGQGTQVTVSS
- polyreactivity (PSR sort gate): low polyreactivity

Sequence: QVQLVESGGGLVQAGGSLRLSCAASGSIFRNNAMGWYRQAPGKERELVASISSSGDSTYADSVKGRFTISRDNAKNTVYLQMNSLKPEDTAVYYCARDYLSPYAVDYWGQGTQVTVSS
- polyreactivity (PSR sort gate): low polyreactivity

Sequence: QVQLVESGGGLVQAGGSLRLSCAASGSIFRNNAMGWYRQAPGKERELVAVISRRSGNTYYADSVKGRFTISRDNAKNTVYLQMNSLKPEDTAVYYCAADYSKSSIRGDYWGQGTQVTVSS
- polyreactivity (PSR sort gate): low polyreactivity

Sequence: QVQLVESGGGLVQAGGSLRLSCAASGSIFRNYAMGWYRQAPGKERELVAAISYRGGSTYYADSVKGRFTISRDNAKNTVYLQMNSLKPEDTAVYYCAARTRKAYYYWGQGTQVTVSS
- polyreactivity (PSR sort gate): high polyreactivity

Sequence: QVQLVESGGGLVQAGGSLRLSCAASGSIFRNYAMGWYRQAPGKERELVATIRYRGGRTYADSVKGRFTISRDNAKNTVYLQMNRLKPEDTAFYYCNTYARYAYLTGRMDYWGQGTQVTVSS
- polyreactivity (PSR sort gate): high polyreactivity

Sequence: QVQLVESGGGLVQAGGSLRLSCAASGSIFRPNAMGWYRQAPGKERELVAAITWSGDSTYYADSVKGRFTISRDNAKNTVYLQMNSLKPEDTAVYYCAKYSLVFYISLYGYWGQGTQVTVSS
- polyreactivity (PSR sort gate): low polyreactivity
